Assays:
[1] = system: HUVECs; test: Scratch (wound healing) assay, endothelial cell migration; type: cell-based, human
Description: Confluent HUVEC monolayers were grown in 6-well plates. Cells were starved 18 hours in EBM-2 medium with 1% FBS. A horizontal wound was created using a sterile 200 μl pipette tip. Next, the cells were washed with EBM2 at 37° C. and incubated in EBM-2 supplemented with VEGF-A (25 ng/ml) or DAND5 (60 ng/ml) at 37° C. for 16 hours. Pictures of scratch wounds were taken just before stimulation (time 0) and after 16 h. Migration % was calculated using ImageJ™ software.
To evaluate the cellular mechanisms underlying the inhibitory effects of DAND5 on endothelial cells sprouting, we assessed the effects of DAND5 on endothelial cell migration and proliferation. Endothelial cell migration plays an essential role in neovascularization, as endothelial tip cells will need to migrate in response to VEGF, and constitutes one of the first steps of the angiogenic response. To address the effects of DAND5 on EC migration, HUVECs were subjected to a wound healing assay. Briefly, a scratch was performed on a confluent monolayer of HUVECs, and wound closure was evaluated at the time of the scratch and again after […].

[2] = system: HUVECs; test: Endothelial cell proliferation (phospho-histone H3, neutral red, EdU flow cytometry); type: cell-based, human
Description: Sub-confluent HUVECs were cultured overnight in starvation medium (EBM2-1% FBS) in the presence or absence of 60 ng/ml DAND5, followed by VEGF stimulation for 1 hour. HUVECs were subjected with a pulse of 5-ethynyl-2′-deoxyuridine (EdU) for 1 hour, and flow cytometry analysis of EdU incorporation was performed as previously described.
The effects of DAND5 on EC proliferation were assessed by treating sub-confluent HUVECs with complete EC medium for 18 hours with DAND5. Cell mitosis was measured by evaluating the proportion phospho-histone H3 (PH3)-positive ECs following DAND5 treatment.

[3] = system: HUVECs; test: Apoptosis of cultured endothelial cells (cleaved caspase 3); type: cell-based, human; conditions: HUVECs cultured for 18 hours
[4] = system: Wnt-induced angiogenesis; test: Wnt1 and DAND5 co-injection during retinal vascular development (P1 to P5); type: in vivo, mouse; conditions: quantification of vascular branches in treated eyes
Description: FIG. 13 is a panel with pictures and graphs showing that Dand5 opposes Wnt1-mediated hypervascularization during retinal vascular development. FIG. 13A: Schematic representation of experimental design. C57B6 pups were injected at P1 with PBS, Dand5 (60 ng/mL), Wnt1, or Wnt1 and Dand5 together at various molar ratios (1N, 5N and 10N). FIG. 13B: Representative images of retinas treated with PBS, Dand5 (1N) or Wnt1 (1N). FIG. 13C: Representative images of retinas treated with PBS or with Wnt1 (5N and 10N) alone or in combination with Danb5. Dand5 Flatmounts retinas were stained with Isolectin B4 to visualize the vasculature. FIG. 13D: Quantification of vascular branches in treated eyes. […] To address the antagonism of DAND5 on Wnt-induced angiogenesis, retinas were injected with recombinant DAND5 (60 ng) with increasing concentrations of Wnt1 (0, 1, 5 or 10× molar ratio) at P1 and retinas were harvested at P5 (FIG. 13A).

[5] = system: HUVECs; test: Free radicals / ROS in HUVECs (DCFDA, MitoSoxRed); type: cell-based, human; conditions: HUVECs
Description: FIG. 8 is a panel with graphs and pictures showing that Dand5 induces mitochondrial oxidative stress and alters ATP levels in HUVECs. FIG. 8A: HUVEC cells were treated with Dand5 in the presence or not of N-acetylcysteine (NAC) for up to 48 hours. Cells were then incubated with H2DCFDA. Hydrogen peroxide treated cells (H2O2) were included as a positive control. Fluorescence was measured at Ex: 485 nm and Em: 535 nm in a plate reader. Relative Fluorescence Units (RFU) were generated by normalizing the reading of each well to Hoescht staining (n=3,*p<0.05 **p<0.001). FIG. 8B: HUVEC cells were treated with Dand5 in for up to 48 hours. Cells were incubated with MitoSox Red. 3-nitro-proprionic acid (3-NP) treated cells were also examined as a positive control. Fluorescence was measured at Ex: 544 nm and Em: 590 nm. Relative Fluorescence Units (RFU) were generated by normalizing the reading of each well to Hoescht staining (n=3,*p<0.05). FIG. 8C: Primary culture of choroidal sprouts were treated with Dand5 in the absence or presence of NAC. FIG. 8D: Quantification of sprouting area by Image J. FIG. 8E: The ratio of NAD+ to NADH in whole cell extracts was determined using an Alcohol Dehydrogenase/Malate Dehydrogenase enzymatic cycling assay. Cells treated to hypoxic conditions (4% O2 for 3 hours) were included as a positive control (n=3,*p<0.05, **p<0.01). Likewise, glucose uptake was reduced in Dand5-treated HUVECs after 1 hour, while lactate levels were increased (lower panel). FIG. 8F: ATP levels were reduced in HUVECs exposed to Dand5 at 1, 6 and 24 hours (n=3,*p=0.05).
We exposed or not HUVECs to recombinant DAND5 and measured the concentration of free radicals using DCFDA and MitoSoxRed™. […] To further test this, we measure the NAD+/NADH ratio in cells treated or not with DAND5. […] Likewise, glucose uptake was reduced and lactate levels were increased in DAND5-treated HUVECs after 1 h (FIG. 8E, lower panel).

[6] = system: Wnt signaling; conditions: previous study (5); cited from earlier work

B1: DAND5: human recombinant DAND5/COCO biologically active fragment produced in E. coli, predicted 18.2 kDa monomer, R&D systems 3047-CC-050 (protein)
chain: MRPEPQSPRPQSWAAANQTWALGPGALPPLVPASALGSWKAFLGLQKARQLGMGRLQRGQDEVAAVTLPLNPQEVIQGMCKAVPFVQVFSRPGCSAIRLRNHLCFGHCSSLYIPGSDPTPLVLCNSCMPARKRWAPVVLWCLTGSSASRRRVKISTMLIEGCHCSPKA
[1]; cells at the wound edge
  polarization of the Golgi apparatus towards the leading edge: did not significantly affect polarization of the Golgi apparatus towards the leading edge
[1]; confluent HUVEC monolayer, DAND5 60 ng/ml, evaluated after 18 hours
  wound closure (VEGF-induced cell migration): significantly delayed wound closure compared to control treatment
[2]; HUVECs, 60 ng/ml DAND5 overnight, VEGF stimulation
  EdU incorporation: reduced Edu incorporation in response to VEGF stimulation
[2]; HUVECs, 6 days
  proliferation of cultured ECs, cell numbers by neutral red incorporation: prevented the proliferation of cultured ECs
[2]; sub-confluent HUVECs, complete EC medium, 18 hours
  phospho-histone H3 (PH3) staining, mitotic index: significant decrease in PH3 staining
[3]
  proportion of cleaved caspase 3 (CC3)-positive cells: did not show differences in the proportion of cleaved caspase 3 (CC3)-positive cells
[4]
  mutual antagonism on vascular branches: mutually antagonist activities
[5]; 24 h and 48 h post-treatment
  free radicals (DCFDA): induced elevation of free radicals 24 h and 48 h post-treatment
[5]; time-course analysis
  mitochondrial reactive oxygen species (MitoSoxRed), time course: induced before cytosolic ROS
[6]
  Wnt signaling in photoreceptors: potent inhibitor of Wnt signaling in photoreceptors
